What was measured:
[1] = target: T1, CDH1 (E-cadherin) as expressed by PDAC9 cells (human, UniProt P12830 155-882); test: flow cytometry of fixed PDAC9 cells after siRNA knockdown
T1 construct: whole, on cells; On fixed cells in flow cytometry; In whole cell lysates in the western blot; PDAC9 is described as patient-derived and is used among the human xenograft models
T1 sequence (looked up): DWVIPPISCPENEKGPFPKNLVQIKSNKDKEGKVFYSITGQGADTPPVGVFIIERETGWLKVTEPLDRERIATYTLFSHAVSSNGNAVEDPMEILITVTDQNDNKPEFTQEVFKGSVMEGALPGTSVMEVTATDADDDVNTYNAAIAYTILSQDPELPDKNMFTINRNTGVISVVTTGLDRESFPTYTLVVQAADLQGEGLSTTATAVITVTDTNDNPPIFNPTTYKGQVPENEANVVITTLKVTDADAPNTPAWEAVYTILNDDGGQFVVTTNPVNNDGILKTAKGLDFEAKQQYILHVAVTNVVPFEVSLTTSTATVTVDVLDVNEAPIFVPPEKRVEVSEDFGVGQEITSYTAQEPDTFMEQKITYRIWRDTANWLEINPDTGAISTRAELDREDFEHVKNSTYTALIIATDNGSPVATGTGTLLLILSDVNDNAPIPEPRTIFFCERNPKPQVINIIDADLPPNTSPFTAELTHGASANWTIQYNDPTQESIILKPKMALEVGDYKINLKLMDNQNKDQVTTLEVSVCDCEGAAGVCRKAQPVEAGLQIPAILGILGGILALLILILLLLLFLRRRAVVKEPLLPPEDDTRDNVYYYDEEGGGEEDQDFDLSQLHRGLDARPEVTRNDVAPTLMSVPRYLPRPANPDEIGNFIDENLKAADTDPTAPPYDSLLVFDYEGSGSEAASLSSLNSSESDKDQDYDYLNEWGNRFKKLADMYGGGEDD
Protocol: Cell lines were routinely checked for mycoplasma (MycoAlert, Lonza), and were obtained from ATCC. […] PDAC9 were grown as previously described (Porter et al., Proc Natl Acad Sci USA, (2019)). Viability assays were performed at 48 hours after treatment with varying concentration of the 23C6 antibody or PBS control. Viability was determined using Cell Titer Glo reagent (Promega). Proliferation assays were performed by treating MDA-MB-231 cells with a single dose of 23C6 antibody or PBS control and timepoints as indicated, where the relative cell number was determined with the Cell TiterGlo reagent. For migration assays, the MDA-MB-231 cells were harvested with trypsin, and the cells suspended in serum free media. […] The cell suspensions were treated with 23C6 or control, and after 48 hours, the number of cells migrating through the membrane was determined by crystal violet staining and microscopic imaging with automated counting of individual cells using Image J. For siRNA knockdown, ONTARGETplus siRNA smartpools (Horizon Discovery) were obtained and transfected using Lipofectamine RNAiMax reagent (Invitrogen) and the cells harvested for analysis after 5 days. For flow cytometry, in brief the cells were fixed with 4% PFA, blocked with 5% BSA in PBS and incubated with the 23C6 antibody at 1:500 followed by anti-mouse IgG-AlexaFlour 555 and then analyzed on BD Fortessa machine.

[2] = target: T2, CDH11 as expressed by human breast cancer cells (MDA-MB-231 and breast cancer CTC lines Brx-142, Brx-330, … (human, UniProt P55287 54-796)); test: western blot of whole cell extracts of MDA-MB-231 and CTC lines; shRNA knockdown as specificity control
T2 construct: whole, on cells; On cells in immunofluorescence and immunohistochemistry; In whole cell extracts (RIPA, SDS gel) in the western blots; also called Cadherin 11; OB-cadherin
T2 sequence (looked up): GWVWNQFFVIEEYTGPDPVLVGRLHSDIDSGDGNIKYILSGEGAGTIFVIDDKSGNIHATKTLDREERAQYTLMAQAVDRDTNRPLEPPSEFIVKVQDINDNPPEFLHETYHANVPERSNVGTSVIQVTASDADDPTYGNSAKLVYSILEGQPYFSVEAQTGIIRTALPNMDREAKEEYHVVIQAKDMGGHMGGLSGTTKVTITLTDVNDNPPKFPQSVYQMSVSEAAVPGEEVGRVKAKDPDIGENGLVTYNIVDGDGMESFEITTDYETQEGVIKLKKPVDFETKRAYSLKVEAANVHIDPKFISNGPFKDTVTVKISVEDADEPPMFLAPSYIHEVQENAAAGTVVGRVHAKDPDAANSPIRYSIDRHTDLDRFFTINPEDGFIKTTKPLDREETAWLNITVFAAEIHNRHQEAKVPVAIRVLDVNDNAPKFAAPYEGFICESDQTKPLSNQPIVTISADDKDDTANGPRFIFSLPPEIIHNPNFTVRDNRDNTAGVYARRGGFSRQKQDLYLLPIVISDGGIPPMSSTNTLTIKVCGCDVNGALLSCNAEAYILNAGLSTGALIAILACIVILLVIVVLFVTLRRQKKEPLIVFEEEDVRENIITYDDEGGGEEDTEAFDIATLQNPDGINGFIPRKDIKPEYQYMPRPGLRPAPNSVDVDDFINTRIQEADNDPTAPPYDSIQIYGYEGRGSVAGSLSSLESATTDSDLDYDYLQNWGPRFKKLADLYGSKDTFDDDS
Protocol: FIG. 1 is the RNA expression levels of cell adhesion molecules in the CTC lines Brx-82, Brx-142, Brx-394 AVG, Brx-189, Brx-390, Brx-121, Brx-292, Brx-319, Brx-250, Brx-140, or Brx-401 from breast cancer patients. The cell adhesion molecule CDH11 was expressed at the RNA level in multiple breast CTC cell lines (FIG. 1, black outline).
(§1) Western blot analysis was performed on whole cell extracts prepared with RIPA buffer. Proteins were separated on 4-15% polyacrylamide gradient-SDS gels (Bio-Rad), and transferred onto nitrocellulose membrane (Invitrogen). Immunoblots were visualized with Enhanced Chemiluminescence (Perkin-Elmer). Primary antibodies were used against E-cadherin (1:5000; BDBiosciences Clone 36), N-cadherin (1:500; EBiosciences Clone 8C11) and GAPDH (1:2000; Millipore ABS16). 23C6 was also used as a primary antibody for western blot analysis (1:250). Recombinant protein obtained as follows: human CDH1 (R&D Systems 8505-EC-050), murine CDH1 (R&D Systems 8875-EC-050), human CDH2 (R&D Systems 1388NC050) and human CDH11 (Elabscience #PKSH032136).

[3] = target: T3, recombinant murine CDH1 (R&D Systems 8875-EC-050) (murine, UniProt P09803 157-709); test: western blot of recombinant purified protein
T3 construct: Bought protein; also called mCDH1; recombinant murine E-cadherin protein
T3 sequence (looked up): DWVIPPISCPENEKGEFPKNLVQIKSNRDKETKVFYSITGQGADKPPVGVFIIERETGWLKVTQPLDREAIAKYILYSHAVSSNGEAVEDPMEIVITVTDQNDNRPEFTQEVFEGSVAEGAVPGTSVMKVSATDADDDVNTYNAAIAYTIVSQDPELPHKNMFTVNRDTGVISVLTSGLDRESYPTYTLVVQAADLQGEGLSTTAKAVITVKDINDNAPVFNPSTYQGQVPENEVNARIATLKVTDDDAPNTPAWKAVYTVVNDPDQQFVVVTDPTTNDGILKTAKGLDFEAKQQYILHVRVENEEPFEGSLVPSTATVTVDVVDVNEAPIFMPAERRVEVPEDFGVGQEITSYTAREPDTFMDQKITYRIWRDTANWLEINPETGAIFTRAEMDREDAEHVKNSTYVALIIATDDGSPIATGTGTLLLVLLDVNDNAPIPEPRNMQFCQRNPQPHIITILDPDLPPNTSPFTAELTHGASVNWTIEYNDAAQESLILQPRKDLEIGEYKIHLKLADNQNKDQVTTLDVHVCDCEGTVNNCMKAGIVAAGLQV
Protocol: as §1

[4] = target: T4, recombinant human CDH1 (R&D Systems 8505-EC-050) (human, UniProt P12830 155-707); test: western blot of recombinant purified protein
T4 construct: Bought protein; also called hCDH1; E-cadherin
T4 sequence (looked up): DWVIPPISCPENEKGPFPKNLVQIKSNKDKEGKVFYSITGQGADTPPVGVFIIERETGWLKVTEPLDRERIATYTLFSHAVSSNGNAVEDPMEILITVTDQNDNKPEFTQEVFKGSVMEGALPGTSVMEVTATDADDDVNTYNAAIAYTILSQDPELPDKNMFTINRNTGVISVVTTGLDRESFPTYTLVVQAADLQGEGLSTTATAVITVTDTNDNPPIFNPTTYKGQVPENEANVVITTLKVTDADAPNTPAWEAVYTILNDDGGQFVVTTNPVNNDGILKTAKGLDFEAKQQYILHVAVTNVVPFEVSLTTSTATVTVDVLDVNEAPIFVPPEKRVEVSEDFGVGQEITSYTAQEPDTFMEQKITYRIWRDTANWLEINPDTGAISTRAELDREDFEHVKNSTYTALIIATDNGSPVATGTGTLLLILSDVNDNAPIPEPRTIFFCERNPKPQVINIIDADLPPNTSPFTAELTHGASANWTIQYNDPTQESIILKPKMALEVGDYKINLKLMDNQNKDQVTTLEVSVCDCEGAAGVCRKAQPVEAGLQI
Protocol: as §1

Measured: binding result

B1: anti-CDH11 monoclonal antibody clone 23C6 (antibody, V domains shown)
VH: EFQLQQSGPELVKPGASVKISCKASGYSFTDYNMNWVKQSNGKSLEWIGAINPNYGTTSYNQKFKGKATLTVDQSSSTAYMQLNSLTSEDSAVYYCTRLYYGSRYFDVWGTGTTVTVSS
VL: QIVVTQSPAIMSASLGERVTMTCTASSSVSSSYLHWYQQKPGSSPKLWIYSTSNLASGVPARFSGSGSGTSYSLTISSMEAEDVATYYCHQYHRSPPTFGGGAKLEIK
notes: also called 23C6 antibody; 23C6 anti-CDH11 antibody
binds: [1] | [2] | [3] | [4]

— patent US20240269310A1 (GENERAL HOSPITAL, published 2024)
